Assay results taken from patent publication US20250011388A1 (MONASH UNIVERSITY, published 2025).

B1: human CD80 (hCD80) expressed on CHO cells (ligand, UniProt P33681 35-288, looked up)
chain: VIHVTKEVKEVATLSCGHNVSVEELAQTRIYWQKEKKMVLTMMSGDMNIWPEYKNRTIFDITNNLSIVILALRPSDEGTYECVVLKYEKDAFKREHLAEVTLSVKADFPTPSISDFEIPTSNIRRIICSTSGGFPEPHLSWLENGEELNAINTTVSQDPETELYAVSSKLDFNMTTNHSFMCLIKYGHLRVNQTFNWNTTKQEHFPDNLLPSWAITLISVNGIFVICCLTYCFAPRCRERRRNERLRRESVRPV
notes: whole, on cells; In most assays co-expressed with human PDL1 on the same CHO cell (cis-CD80:PDL1 clones, e.g. clone 12); also called B7-1; cis-CD80:PDL1 cells
B2: MonoCTLA4-Ig (Fc fusion)
chain: MHVAQPAVVLASSRGIASFVCEYASPGKATEVRVTVLRQADSQVTEVCAATYMMGNELTFLDDSICTGTSSGNQVNLTIQGLRAMDTGLYICKVELMYPPPYYLGIGNGTQIYVIAKEKKPSYNRGLCENAPNRARMQEPKSSDKTHTSPPSPAPELLGGSSVFLFPPKPKDTLMISRTPEVTCVVVDVSHEDPEVKFNWYVDGVEVHNAKTKPREEQYNSTYRVVSVLTVLHQDWLNGKEYKCKVSNKALPAPIEKTISKAKGQPREPQVYTLPPSRDELTKNQVNLTCLVKGFYPSDIAVEWESNGQPENNYKTTPPVLDSDGSFFLNSTLTVDKSRWQQGNVFSCSVMHEALHNHYTQKSLSLSPGK
notes: not shown: C-terminal FLAG tag

Experiments:
[1] = target: T1, human PDL1 (hPDL1) expressed on CHO cells (human, UniProt Q9NZQ7 19-290); assay: flow cytometry, CHO cells co-expressing human CD80 and PDL1 (cis interaction)
T1 construct: whole, on cells; Expressed alone (parental PDL1 clone) or with CD80 (cis-CD80:PDL1 clones)

[2] = target: B1; assay: flow cytometry, anti-hIgG1 staining, cis-CD80:PDL1 CHO cells
Protocol: After washing to remove excess fusion protein and antibody, cell pellets were resuspended in 100 μL of FACS buffer (PBS with 10% FCS). Flow cytometry was performed on viable cells (based on SSC/FSC) using a BD LSRII or LSRFortessa (BD Biosciences), and cell sorting was performed using a BD Influx (BD Biosciences) with a 100 μm nozzle. […] All antibodies were used at a final dilution of 1:200 from stock.

T1 sequence (Q9NZQ7 19-290): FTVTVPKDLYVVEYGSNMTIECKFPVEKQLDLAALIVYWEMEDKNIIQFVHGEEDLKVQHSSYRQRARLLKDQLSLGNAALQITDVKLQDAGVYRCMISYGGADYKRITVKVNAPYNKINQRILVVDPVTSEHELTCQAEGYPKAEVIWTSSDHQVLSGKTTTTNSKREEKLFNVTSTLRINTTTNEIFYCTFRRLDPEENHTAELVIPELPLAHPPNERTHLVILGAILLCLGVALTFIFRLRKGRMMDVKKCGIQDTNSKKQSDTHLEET

Binder	binding result [1]	binding result [2]
B1	binds	
B2		binds
